Test results from patent publication US20170275357A1.

Target: PDGFRα/PDGFRβ
Assay: cell-based or functional assay

B1: α/βVCV2 IgG1.1 (bispecific antibody)
heavy: EVQLVESGGGLVKPGGSLKLSCAASGFAFSSYAMSWVRQSPEKRLEWVATISSGGHYTFYPDSVKGRFTISRDNAKNTLYLQMSSLRSEDTAIYYCARRYYALDYWGQGTSVTVSSASTKGPSVFPLAPSSKSTSGGTAALGCLVKDYFPEPVTVSWNSGALTSGVHTFPAVLQSSGLYSLSSVVTVPSSSLGTQTYICNVNHKPSNTKVDKKVEPKSCGGGGSGGGGSEVQLQQSGPELVKTGASVKISCKASGYSFINHYMNWVKQSRGKSLEWIGYVSCYNGATGYNQKFKDKATFTVDTSSSTAYMQFNNLTSEDSAVYYCARRGFMEAMDYWGQGTSVTVSSEPKSSDKTHTCPPCPAPEAEGAPSVFLFPPKPKDTLMISRTPEVTCVVVDVSHEDPEVKFNWYVDGVEVHNAKTKPREEQYNSTYRVVSVLTVLHQDWLNGKEYKCKVSNKALPSSIEKTISKAKGQPREPQVYTLPPSRDELTKNQVSLTCLVKGFYPSDIAVEWESNGQPENNYKTTPPVLDSDGSFFLYSKLTVDKSRWQQGNVFSCSVMHEALHNHYTQKSLSLSPGK
light: DIVMTQSQKFMSTSLGDRVSVSCKASQNVLTNVAWYQQKPGQSPKTLIYSASYRYSGVPDRFTGSGSGTDFTLTISIVQSEDLAEYFCQQYNIYPWTFGGGTKLEIKRTVAAPSVFIFPPSDEQLKSGTASVVCLLNNFYPREAKVQWKVDNALQSGNSQESVTEQDSKDSTYSLSSTLTLSKADYEKHKVYACEVTHQGLSSPVTKSFNRGECGGGGSGGGGSDIVMTQSPFSLTVTVGEKVTMSCKSSQSLLNSRTRKNYLAWYQQKPGQSPKLLIYWASTRESGVPDRFTGSGSGTDFTLTISSVQAEDLAVYYCKQSYNLYTFGGGTKLEIK
% Inhibition of PDGFC-induced NHLF proliferation: 70% | % Inhibition of PDGFD-induced NHLF proliferation: 100%
